Data on two molecules can be found in US20220323495A1 (NATIONAL RESEARCH COUNCIL OF CANADA, published 2022).

The target in experiment [1] is T1, recombinant human EGFRvIII protein, denatured (human, UniProt P00533 298-623).
T1 construct: Same protein as m9 after denaturation (95 °C for 5 min in PBS with 40 mM DTT); also called EGFRvIII Denatured
As to the kind of experiment: ELISA on coated denatured recombinant antigen; Exp 2, purified mAb 1 µg/ml. As to the method:
(§1) Pre- and post-immune sera titers of animals were assessed by ELISA on recombinant EGFRvIII protein. Unless otherwise stated, all incubations were performed at room temperature. Briefly, half-area 96-well plates (Costar #3690) were coated with 25 μl per well of immunogen at 5 μg/ml in PBS and incubated overnight at 4° C. Microplates were washed three times in PBS and blocked for 30 min with PBS containing 1% bovine serum albumin (BSA, Sigma Cat#A7030). Blocking buffer was removed and 25 μl of serial dilutions of sera samples were added. After a 2-h incubation, microplates were washed 4 times with PBS-TWEEN™ 20 0.05% and 25 μl of a 1/5,000 dilution of alkaline phosphatase conjugated F(ab′)′₂ goat anti-mouse IgG (H+L, #115-056-062, Jackson Immunoresearch, Cedarlane, Burlington, ON) in blocking buffer was added. After a 1-h incubation, microplates were washed 4 times and 25 μl of p-nitrophenyl phosphate (pNPP) substrate (Sigma-Aldrich Canada Co., Oakville, ON) at 1 mg/ml in carbonate buffer at pH 9.6 was added and further incubated for 30 min. Absorbance was read at 405 nm using a SpectraMax 340 PC plate reader (Molecular Devices, Sunnyvale, Calif.).
(§2) To evaluate if monoclonal antibodies bind to a conformational epitope, an ELISA analysis on native and denatured recombinant human wild-type EGFR and EGFRvIII proteins were performed. […] Antigens at 1-2 mg/ml were denatured by incubation at 95° C. for 5 min in PBS containing DTT at 40 mM final concentration. They were then incubated on ice for 5 min and diluted at their final coating concentration for ELISA purpose.
(§3) mAbs were purified using HiTrap ProteinG HP 1 mL columns GE Healthcare cat no. 17-0404-01 and desalted using Zeba-spin desalting columns 5 mL (Pierce) pre-equilibrated in PBS and filter sterilized through […] membrane (Millipore). The final concentration of the antibody solutions was determined using a Nano-drop 2000 (ThermoScientific), using IgG as sample type. ELISA was performed as described above (serum titer determination) using 25 μl of mAb supernatant (Exp 1) or purified mAb at 1 μg/ml (Exp 2).

In experiment [2] the target is T2, recombinant human wild-type EGFR protein, denatured (human, UniProt P00533 25-645).
T2 construct: Same protein as m11 after denaturation (95 °C for 5 min in PBS with 40 mM DTT); also called EGFRwt Denatured
Described as above. As to the method: as §1, §2, §3

Experiment [3] concerns the target T3, EGFRvIII amino acid residues 15 to 37 with Ser15 to Ala mutation, yeast-displayed (human, not fully specified).
T3 construct: The entry already carries the mutation
T3 peptide: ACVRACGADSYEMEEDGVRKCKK
The experiment in a line: flow cytometry on yeast displaying the Ala-mutated 15-37 fragment; normalized to Myc-tag; wild-type fragment = 100%. The text has this:
(§4) Assessment of the binding of anti-EGFRvIII monoclonal antibodies to the fusion proteins expressed on yeast cell surface was done by flow cytometry analysis. Yeast cells were labeled with both the anti-EGFRvIII monoclonal antibody and chicken anti-Myc antibody the latter being used to monitor the level of expression of the fusion protein. Following a wash step, binding of the primary antibodies is probed by a two-color indirect fluorescence labeling using a specific mouse and chicken secondary antibodies for each of the primary antibody respectively.
(§5) To further characterize mAb epitopes within the EGFRvIII 15-37 region, an alanine scan of this region was performed, and modified fragments were expressed at the surface of the yeast. […] The resulting DNAs were expressed at the surface of the yeast and each anti-EGFRvIII mAbs was tested on the corresponding yeast mutant strain by flow cytometry analysis. The original Ala19 and Ala22 were not mutated. Thus, this assay determined the contribution of each amino acid(s) in mAb binding in comparison to the original wild-type fragment (SEQ ID NO:5) which is attributed the value of 100%.
For orientation: In flow cytometry, cells or beads pass a laser one at a time.

The target in experiment [4] is T4, EGFRvIII amino acid residues 15 to 37 with Cys16 to Ala mutation, yeast-displayed (human, not fully specified).
T4 construct: The entry already carries the mutation
T4 peptide: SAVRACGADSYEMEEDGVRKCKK
Described as above.
Description: as §4, §5

Experiment [5] concerns the target T5, EGFRvIII amino acid residues 15 to 37 with Ser24 to Ala mutation, yeast-displayed (human, not fully specified).
T5 construct: The entry already carries the mutation
T5 peptide: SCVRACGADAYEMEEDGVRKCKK
The experiment is described as above.
Description: as §4, §5

Experiment [6] addresses T6, EGFRvIII amino acid residues 15 to 37 with Met27 to Ala mutation, yeast-displayed (human, not fully specified).
T6 construct: The entry already carries the mutation
T6 peptide: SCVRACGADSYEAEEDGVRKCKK
The description is as above.
Description: as §4, §5

In experiment [7] the target is T7, EGFRvIII amino acid residues 15 to 37 with Glu28 to Ala mutation, yeast-displayed (human, not fully specified).
T7 construct: The entry already carries the mutation
T7 peptide: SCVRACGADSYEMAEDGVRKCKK
The experiment is described as above.
Description: as §4, §5

The target in experiment [8] is T8, EGFRvIII amino acid residues 15 to 37 with Asp30 to Ala mutation, yeast-displayed (human, not fully specified).
T8 construct: The entry already carries the mutation
T8 peptide: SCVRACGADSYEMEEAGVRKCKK
The description is as above.
Description: as §4, §5

Experiment [9] has as its target T9, EGFRvIII amino acid residues 15 to 37 with Val32 to Ala mutation, yeast-displayed (human, not fully specified).
T9 construct: The entry already carries the mutation
T9 peptide: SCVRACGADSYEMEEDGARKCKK
The experiment is described as above.
Description: as §4, §5

The target in experiment [10] is T10, EGFRvIII amino acid residues 15 to 37 with Arg33 to Ala mutation, yeast-displayed (human, not fully specified).
T10 construct: The entry already carries the mutation
T10 peptide: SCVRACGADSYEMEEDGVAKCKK
Described as above.
Description: as §4, §5

The target in experiment [11] is T11, EGFRvIII amino acid residues 15 to 37 with Lys37 to Ala mutation, yeast-displayed (human, not fully specified).
T11 construct: The entry already carries the mutation
T11 peptide: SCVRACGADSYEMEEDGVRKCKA
Described as above.
Description: as §4, §5

B1: F269-3D12 anti-EGFRvIII monoclonal antibody (antibody, V domains shown)
VH: EVQLQQSGPELVKPGSSVRISCKASGYTFTDYNMDWVKQSHGKSLEWIGTINPNNGGTSYNQKFKGKATLTVDKSSSTAYMELRSLTSEDSAVYYCARVRQLGLWFAYWGQGTLVTVSA
VL: EIVLTQSPALMAASPGEKVTITCSVSSSISSSNLHWYQQKSETSPKPWIYGTSNLASGVPVRFSGSGSGTSYSLTISSMEAEDAATYYCQQWSSYPLTFGSGTKLEIK
notes: Mouse hybridoma IgG, tested as supernatant or Protein G purified mAb; also called 3D12-2
For B1, the “ELISA absorbance (405 nm)” value in experiment [1] stood at 0.517 A405; in experiment [2], 0.001 A405. Moreover, the “% of binding compared to the wild-type sequence” value (“% of binding” below) in experiment [3] amounted to 90.2%; in [4], 171%; in experiment [5], 233%; in experiment [6], 75.3%; in experiment [7] it was 71%; in experiment [8], 78.5%. Further, the “% of binding” value in experiment [9] was 93.8%; in [10] it was 22.1%; in experiment [11] it was 162%.

B2: F265-5B7 anti-EGFRvIII monoclonal antibody (antibody, V domains shown)
VH: QIQLVQSGPELKKPGETVMISCKASGYSFTNYGMNWVKQAPEKDLKWMGWINTYTGESRYVDEFKGRFAFSLETSVSIVYLKINNLKNEDMATYFCARGPNFDVWGTGTTVTVSS
VL: not shown
notes: Mouse hybridoma IgG, tested as supernatant or Protein G purified mAb; also called 5B7-2
B2: the “ELISA absorbance (405 nm)” value in [1] is 0.623 A405; in experiment [2], 0 A405. In addition, the “% of binding” value in experiment [3] came out at 91.6%; in [4] it was 240%; in experiment [5] it was 230%; in experiment [6], 111%; in experiment [7] it was 78.5%; in experiment [8], 106%. Moreover, the “% of binding” value in [9] was 101%; in [10], 95.8%; in experiment [11] it was 143%.
